Target: T1, human Trop-2 (human, UniProt P09758 27-323)
T1 construct: whole, on cells; also called EGP-1; epithelial glycoprotein-1
T1 sequence (looked up): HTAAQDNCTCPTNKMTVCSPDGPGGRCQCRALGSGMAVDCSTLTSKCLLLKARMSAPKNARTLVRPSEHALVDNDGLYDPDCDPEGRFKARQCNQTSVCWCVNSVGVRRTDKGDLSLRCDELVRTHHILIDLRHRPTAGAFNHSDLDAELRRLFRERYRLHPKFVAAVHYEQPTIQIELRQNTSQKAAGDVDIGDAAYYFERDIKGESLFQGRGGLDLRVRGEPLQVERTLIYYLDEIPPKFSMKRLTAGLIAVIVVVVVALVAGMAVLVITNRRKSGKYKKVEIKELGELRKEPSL
Test: cell binding assay on NCI-N87 cells, anti-mouse-HRP secondary, luminescence

B1: murine RS7 (antibody, V domains shown)
VH: VKLQESGPELKKPGETVKISCKASGYTFTNYGMNWVKQAPGKGLKWMGWINTYTGEPTYTDDFKGRFAFSLETSATTAYLQINNLKSEDMATYFCARGGFGSSYWYFDVWGQGTTVTVSS
VL: DIQLTQSHKFMSTSVGDRVSITCKASQDVSIAVAWYQQKPGQSPKLLIYSASYRYTGVPDRFTGSGSGTDFTFTISSVQAEDLAVYYCQQHYITPLTFGAGTKLELK
How did the Kd turn out when B1 was run?
The Kd was 0.57 nM.
